According to publication PMC9800568, “The permanently chaperone-active small heat shock protein Hsp17 from Caenorhabditis elegans exhibits topological separation of its N-terminal regions” (The Journal of Biological Chemistry, 2022):

Legend:
[1] = biological target: Hsp17 (small heat shock protein Hsp17 from Caenorhabditis elegans) (C. elegans) (UniProt Q20660); test: cryo-EM structure; 2.5 mg/ml Hsp17, Titan Krios 300 kV, tetrahedral symmetry, pseudo-atomic model fitted
[2] = biological target: Hsp17 (small heat shock protein Hsp17 from Caenorhabditis elegans) (C. elegans) (UniProt Q20660); test: SEC; SEC-HPLC, Superdex 200 Increase 10/300 GL, PBS, 0.5 ml/min, room temperature, 50 μl of 50 μM protein
[3] = biological target: the molecule itself; test: as above

stoichiometry N [1] | stoichiometry N [2] | Molecule | stoichiometry N [3]
24 | 24 | Hsp17 (small heat shock protein Hsp17 from Caenorhabditis elegans) (from UniProt Q20660 1-149) (natural protein) | 
 |  | Hsp17ΔNTR (Hsp17 variant lacking the N-terminal region) (domain or fragment, C. elegans, Hsp17, C. elegans, from aa position 45 to the C-terminus (ACD and CTR); The full-length protein is modelled to residue 148; also called NTR-truncated variant; truncation variant; source: E. coli BL21 (DE3), tag-free, purified (Sepharose Q FF, Superdex 75 pg)) MGDAIDVVNNDQEYNVSVDVSQFEPEELKVNIVDNQLIIEGKHNEKTDKYGQVERHFVRKYNLPTGVRPEQIKSELSNNGVLTVKYEKNQEQQPKSIPITIVPKRN | 3.5 monomers
